# The RNAGym collection of RNA variant scans (doi:10.1073/pnas.2313332121)
# B1: TPR t1 (parent)
# chain: GACCAAUCUGCCCUCAGAGCUCGAGAACAUCUUCGGAUGCAGAGGAGGCAGGCUUCGGUGGCGCGAUAGCGCCAACGUCCUCAACCUCCAAUGCAUCCCACCACAUGAUGAUGCCUGAAGAGCCUUGGUUUUUUG
# Variants of: B1
# Assay: polymerase ribozyme fitness, log enrichment relative to wild type (log ratio); higher = more active; in vitro selection for triplet polymerase activity
# Summary of the method: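 Mutant libraries of both subunits of a heterodimeric triplet polymerase ribozyme were PCR-built, transcribed, and selected once in triplicate, with frozen incubation at −7 °C and capture of gel-excised extended constructs on streptavidin beads before RT-PCR. Illumina sequencing of input and output libraries was filtered to genotypes with ≥10 input reads and ≥1 read per output. Fitness is the logarithm of genotype enrichment over wild-type enrichment, using inverse-variance-weighted replicate averages. The logarithm is base 2.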
row,Variant,polymerase ribozyme fitness (log ratio)
1,C8G U14G G61C A66C,-2.35
2,C8G U21A U54C C72A,0.0731
3,C8G U30C G60C,-4.49
4,C8G U32C A66U,-0.651
5,C8G U32C A90C,-0.367
6,C8G U38C G42A C56U C124A,-1.34
7,C8G U54G C64U C89G,-4.42
8,C8G U59G C82U C85A U126C,-1.16
9,C8G U87A,0.833
10,C8G U96A,0.0383
11,C8G U106G C114U,-1.28
12,C8U A18C A41U A50G C72G C101U,-3.51
13,C8U A18U,-1.03
14,C8U A18U C53U C79G G93C U130G,-4.48
15,C8U A18U G57A C64U C94U,-4.97
16,C8U A26U A83C G127C U133A,-5.14
17,C8U A27U C76G U96G,-3.38
18,C8U A29G U112A,-0.107
19,C8U A29U C62U A83C C88G A119G,-2.75
20,C8U A41C C73A G122A,0.223
21,C8U A43C C94U U130A,-2.21
22,C8U A43G C89G C98U G135U,-4.02
23,C8U A50U C104U C123U,1.14
24,C8U A74U C94A,-0.334

row,Variant,polymerase ribozyme fitness (log ratio)
1,C8U A95G C102U U106A,-3.3
2,C8U A103C,-4.8
3,C8U A111C,0.776
4,C8U C11G G48C C56U C89U G117U,-1.01
5,C8U C11G G93A,-0.424
6,C8U C11U A29U C70A,-3.03
7,C8U C12A A84C U116C,0.149
8,C8U C12A G19U U59C A75U G120A,-1.37
9,C8U C12A G19U U59C G120A,-1.69
10,C8U C12A G35U G45C C53G C104U,-6.79
11,C8U C12A G61A C79U,0.0887
12,C8U C12U C49U U116A G120U C123U U126C,-4.26
13,C8U C12U C101G A121C,-0.571
14,C8U C13A A37C G61U U87G C102U,-1.74
15,C8U C13G G110U,-1.09
16,C8U C15A A66U A118U A121C,-0.152
17,C8U C15A A119G,0.435
18,C8U C15G A46U G113A,-5.27
19,C8U C15U C72G G120U,1.39
20,C8U C20U A37U A43U C72U A74U,-2.39
21,C8U C22A C62U,-4.04
22,C8U C22G G39C A41G G63A A118U,-3.78
23,C8U C22G U33A A50C G57U G120U,-4.54
24,C8U C22G U55C C73A C98A A111G U112A,-6.04

row,Variant,polymerase ribozyme fitness (log ratio)
1,C8U C22U G52U G60C,-4.56
2,C8U C28U U116A,-3.54
3,C8U C31U C53U,-4.36
4,C8U C34U G35A C101A C114U,-6.15
5,C8U C40A,-1.07
6,C8U C40U C104A A119G,-1.19
7,C8U C40U G51C G120C,-1.98
8,C8U C49G,0.889
9,C8U C49U C56U C70U C98A,-6.59
10,C8U C53A C73G,-0.563
11,C8U C53U,0.0512
12,C8U C53U C73U A105C U125G,-1.94
13,C8U C56G C80A,-1.69
14,C8U C62A,-0.587
15,C8U C62U,0.699
16,C8U C62U C64A,-5.43
17,C8U C62U U87A A121U,1.89
18,C8U C64A U78C C123U,-4.51
19,C8U C70A,-1.06
20,C8U C70A C115U G117A,-4.95
21,C8U C70G,-1.58
22,C8U C70U,-0.398
23,C8U C72G,0.517
24,C8U C72G A84U U87C U92G,-4.49

row,Variant,polymerase ribozyme fitness (log ratio)
1,C8U C72G G93A,-0.0349
2,C8U C72G U87G C94U G122A,-0.203
3,C8U C72G U92A C123A,-2.13
4,C8U C72G U96G,-1.03
5,C8U C72U C82A A84C A111C,0.264
6,C8U C73U G120A,1.89
7,C8U C73U U78C,0.277
8,C8U C73U U112A,1.84
9,C8U C76A C79G C123G,0.407
10,C8U C76G U96A G120U U129C,0.287
11,C8U C88U,0.472
12,C8U C88U A121C,1.33
13,C8U G10U C72U,-0.279
14,C8U G17U G36C G71U C82G,-4.44
15,C8U G19C A43U C94A C115A G120U U133A,-2.68
16,C8U G19C G42U C62G A91G C123U,-2.98
17,C8U G36U U78C C88G C101A,-3.59
18,C8U G39C,0.0547
19,C8U G39C C79U G120U,1.3
20,C8U G39U C49G G63A U78A G128A,-3.94
21,C8U G42A A111G U116A A121G C124G,-2.21
22,C8U G42U,-0.81
23,C8U G44A,-0.0714
24,C8U G44A C56A,-0.314

row,Variant,polymerase ribozyme fitness (log ratio)
1,C8U G44A C104U,0.0147
2,C8U G44A U109A,-5.08
3,C8U G45U U59C U92A,-4.17
4,C8U G47C C62U,-1.51
5,C8U G48C G69U,0.0683
6,C8U G48U A50U G69U C86U U96A,-1.23
7,C8U G51A,-1.3
8,C8U G51A C64U C104G G120C,-6.76
9,C8U G52C,-0.0551
10,C8U G52U U54G G63A A118G,-3.26
11,C8U G57U,-0.029
12,C8U G58A G93U G117U G128C,-5.28
13,C8U G60C,0.253
14,C8U G61U,0.435
15,C8U G61U A84C G120U,1.93
16,C8U G61U C88G U109A U133C,-4.61
17,C8U G65A,-4.53
18,C8U G69U C115A,1.59
19,C8U G71A C76A G120U,-5.96
20,C8U G71A C115U,-1.94
21,C8U G71U U78C C98U A119U,-1.03
22,C8U G77C,-0.262
23,C8U G93U C102U G120C,-1.01
24,C8U G113A A121G,-0.604

row,Variant,polymerase ribozyme fitness (log ratio)
1,C8U G113C,-1.19
2,C8U G127C,-1.53
3,C8U U9G G57A,-0.23
4,C8U U14A C72A C73U,-2.99
5,C8U U14G G17A A119G,-0.996
6,C8U U14G G60A C73U,-0.213
7,C8U U21A C22U A27G C31G C56U G60A C86A U87G C115A A121C,-5.4
8,C8U U32A U96A A121C U130C,-3.85
9,C8U U32C C62A G117U,-2.35
10,C8U U38G G61U G93A,-4.11
11,C8U U55G G113C,-1.85
12,C8U U59A C94U A119U,-0.404
13,C8U U78G C98U,-0.651
14,C8U U96A U125G U131C,-1.53
15,C8U U96C,0.939
16,C8U U125A U130G,-0.351
17,U9A A16G G93A G117A,-0.214
18,U9A A16U G63A U129C,-1.11
19,U9A A18C G44A C70U G93C,-4.58
20,U9A A18U U92C,-2.53
21,U9A A26G C101G C104A G122A,-3.48
22,U9A A26U,-1.79
23,U9A A27C U30C C56G A111U,-4.95
24,U9A A27U G42U,-4.71

row,Variant,polymerase ribozyme fitness (log ratio)
1,U9A A29U G63A C104A,-3.02
2,U9A A37C G63C,-0.708
3,U9A A46C A50C C82G,-0.971
4,U9A A50C A91G U106C,-1.11
5,U9A A74G C104A C123A,-0.249
6,U9A A83G,-0.27
7,U9A A90C,-0.569
8,U9A A91C U92A C104U,-2.18
9,U9A A91G,-0.793
10,U9A A111U,-1.46
11,U9A C11A G42U G61U,-1.6
12,U9A C12A A16C A26U G47U,-5.44
13,U9A C12A G42U A46G C53G C70U U132A,-2.02
14,U9A C12U A37G G61A,0.106
15,U9A C12U C15A C53G U54C U106G,-3.06
16,U9A C13G A16U A41U,-1.62
17,U9A C13G G61U,0.255
18,U9A C15A G45C A108G,-4.55
19,U9A C20G,-2.47
20,U9A C31G A83C G107C,-1.45
21,U9A C34A C72A C102U C123A G128U,-1.61
22,U9A C34A G51A C70U A121C,-6.25
23,U9A C49A C72A A100U,-0.384
